This experiment deals with recombinant zika virus (ZIKV) non-structural 1 (NS1) protein (Zika virus). The experiment can be described thus: SEC; Superdex 200 10/300, elution in 50 mM CAPS pH 11.0; supernatants of NS1 inclusion bodies subjected to 2.4 kbar/0.4 kbar at pH 10.0 to 12.5, with or without Arg. On the technique in general: In gel filtration, larger molecules generally elute earlier.

The values that follow come from article PMC6291932.

With “recombinant zika virus (ZIKV) non-structural 1 (NS1) protein (natural protein)”, the stoichiometry N turned out to be 2.

One may read the stoichiometry N as the number of molecules, sites or subunits per partner or assembly.
